Test results taken from US5385834, “Mutant T7 RNA polymerase GP1(lys222) exhibiting altered promoter recognition” (Georgia Tech Research Corporation).

Key:
[1] = molecular target: T7 RNA polymerase mutant GP1(lys222) (Bacteriophage T7, UniProt P00573 SEQ:1-883, E222K); assay: EMSA; +/-5e3; 20-fold below wild-type; more easily disrupted by lambda DNA; 25 C; settings: label: 32P
Description: (§1) FIG. 8: Binding of a T7 Promoter by Wild-type T7 RNA Polymerase and GP1(lys222). […] Lane 1-no RNA polymerase, 5 µM promoter; Lane 2-26.5 nM GP1(lys222), 5 µM promoter; Lane 3-132.7 nM GP1(lys222), 5 µM promoter; Lane 4-26.5 nM GP1(lys222), 5 µM promoter, 3 µg lambda DNA; Lane 5-132.7 nM GP1(lys222), 5 µM promoter, 3 µg lambda DNA; Lane 6-12.9 nM T7 RNA polymerase, 5 µM promoter, Lane 7-64.7 nM T7 RNA polymerase, 5 µM promoter; Lane 8-12.9 nM T7 RNA polymerase, 5 µM promoter, 3 µg lambda DNA; Lane 9-64.7 nM T7 RNA polymerase, 5 µM promoter, 3 µg lambda DNA. Complex=Position of the enzyme/promoter complexes. Promoter=Position of the unbound promoter oligo.
(§2) 12. Estimation of Promoter Binding. The ability of T7 RNA polymerase and GP1(lys222) to bind a T7 promoter was determined by a gel-retardation method [Muller, D. K., et al., *Biochemistry*, 27: 5763-5771 (1988)]. […] The promoter/polymerase complexes were then cut out of the gel, and the amount of promoter contained in the complexes was measured by liquid scintillation.

[2] = molecular target: T7 RNA polymerase (wild-type) (Bacteriophage T7, UniProt P00573 SEQ:1-883); assay: EMSA; +/-2.2e5; 10 mM K phosphate pH 7.8, 1 mM EDTA, 20 mM NaCl, 25 C; settings: label: 32P
Description: as §1, §2

B1: 24 bp T7 promoter oligonucleotide (dsDNA)
DNA 1: ATTAATACGACTCACTATAGGACT
DNA 2: AGTCCTATAGTGAGTCGTATTAAT
Ka [1]: 14000 M⁻¹
Ka [2]: 280000 M⁻¹
